Patent US20040038894A1, “Compounds for modulating cell negative regulations and biological applications thereof” (INSTITUT NATIONAL DE LA SANTE ET DE LA RECHERCHE MEDICALE …, priority 1996, published 2004)
Where no end group is shown, it is not given here. The star is where a group is joined. Biotin = O=C1N[C@H]2[C@H](CS[C@H]2CCCCC(=O)*)N1

Experiments:
Type in all cases: binding
Conditions in all cases: RBL-2H3 lysates, peptide on streptavidin beads
SHP-1 = molecular target: T1, SHP-1 (Rattus norvegicus, UniProt P81718); assay: Cell lysate adsorption to peptides, anti-SHP-1 immunoblot
T1 construct: endogenous in cells; host or cells: RBL-2H3
Procedure: (§1) Assay for cell lysate adsorption to peptides. RBL-2H3 cells were lysed in NP-40 lysis buffer (1% NP-40, 10 mM Tris-HCl, 150 mM NaCl, 1 mM EDTA, 1 mM PMSF, 10 mM iodoacetamide, 10 mM NaF, 10 mM Na pyrophosphate, 0.4 mM Na vanadate, 10 μg/ml leupeptine, 10 μg/ml aprotinine). Samples were either used directly (whole cell lysates: WCL), or subjected to affinity purification using peptides bound to beads. Biotinylated peptides (5 μg) were coupled to 50 μl streptavidin-agarose bead slurry (Sigma) for 1 hour at 4° C., prior to bead saturation with D-biotin (1 mg/ml) for 1 hour at 4° C. After 3 washes in lysis buffer, samples were separated on SDS-PAGE and transferred to nitrocellulose.
(§2) RBL-2H3 and ^35S-labeled IIA.1.6 cells were lysed in NP-40 lysis buffer (1% NP-40, 10 mM Tris-HCl, 150 mM NaCl, 1 mM EDTA, 1 mM PMSF, 10 mM iodoacetamide, 10 mM NaF, 10 mM Na pyrophosphate, 0.4 mM Na vanadate, 10 μg/ml leupeptin, 10 μg/ml aprotinin). Samples were either used directly (whole cell lysates: WCL), or subjected to affinity purification using peptides bound to beads. Biotinylated peptides (5 μg) were coupled to 50 μl streptavidin-agarose slurry beads for 1 hour at 4° C., prior to bead saturation with D-biotin (1 mg/ml) for 1 hour at 4° C. After 3 washes in lysis buffer, samples were fractionated on 8% SDS-polyacrylamide gel electrophoresis (SDS-PAGE) under reducing condition and transferred to nitrocellulose.
(§3) Results are illustrated by FIG. 15 showing the in vitro interaction between NKG2A ITIMs and SHP-1, SHP-2 and SHIP phosphatases. In FIG. 15, RBL-2H3 cell lysates (15A) or ^35S-labeled ILA.1.6 cell lysates (15B) were absorbed with indicated biotinylated peptides coupled to streptavidin-beads. Affinity-bound proteins (30×10^6 cells/sample) or whole cell lysates (WCL, 5×10^6 cells/sample) were resolved on 8% SDS-PAGE under reducing conditions prior to autoradiography (15B), or immunoblotting using anti-SHIP antiserum, anti-SHP-2 mAb and anti-SHP-1 mAbs (15A).

SHP-2 = molecular target: T2, SHP-2 (Rattus norvegicus, UniProt P41499); assay: Cell lysate adsorption to peptides, anti-SHP-2 immunoblot
T2 construct: RBL-2H3 cells were lysed in NP-40 lysis buffer; endogenous in cells; host or cells: RBL-2H3
T2 sequence (P41499 1-593): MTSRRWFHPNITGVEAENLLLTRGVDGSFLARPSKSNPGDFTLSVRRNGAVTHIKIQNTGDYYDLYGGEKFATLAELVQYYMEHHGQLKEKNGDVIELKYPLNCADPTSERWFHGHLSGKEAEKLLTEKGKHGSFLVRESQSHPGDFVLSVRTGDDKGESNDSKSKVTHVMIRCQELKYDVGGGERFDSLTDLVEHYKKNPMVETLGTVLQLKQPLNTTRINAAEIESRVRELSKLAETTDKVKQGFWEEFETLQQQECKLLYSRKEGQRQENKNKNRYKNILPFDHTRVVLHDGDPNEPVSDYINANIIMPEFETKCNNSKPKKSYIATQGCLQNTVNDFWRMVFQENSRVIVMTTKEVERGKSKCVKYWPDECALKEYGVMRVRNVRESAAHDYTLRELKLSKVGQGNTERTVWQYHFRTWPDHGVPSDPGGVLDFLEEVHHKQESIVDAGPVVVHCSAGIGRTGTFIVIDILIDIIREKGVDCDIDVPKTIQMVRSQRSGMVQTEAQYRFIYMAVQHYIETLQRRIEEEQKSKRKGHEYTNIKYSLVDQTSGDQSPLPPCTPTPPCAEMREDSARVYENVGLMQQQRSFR
Procedure: as §1, §2, §3

SHIP = molecular target: T3, SHIP (Rattus norvegicus, UniProt P97573); assay: Cell lysate adsorption to peptides, anti-SHIP immunoblot
T3 construct: RBL-2H3 cells were lysed in NP-40 lysis buffer; endogenous in cells; host or cells: RBL-2H3
T3 sequence (P97573 1-1190): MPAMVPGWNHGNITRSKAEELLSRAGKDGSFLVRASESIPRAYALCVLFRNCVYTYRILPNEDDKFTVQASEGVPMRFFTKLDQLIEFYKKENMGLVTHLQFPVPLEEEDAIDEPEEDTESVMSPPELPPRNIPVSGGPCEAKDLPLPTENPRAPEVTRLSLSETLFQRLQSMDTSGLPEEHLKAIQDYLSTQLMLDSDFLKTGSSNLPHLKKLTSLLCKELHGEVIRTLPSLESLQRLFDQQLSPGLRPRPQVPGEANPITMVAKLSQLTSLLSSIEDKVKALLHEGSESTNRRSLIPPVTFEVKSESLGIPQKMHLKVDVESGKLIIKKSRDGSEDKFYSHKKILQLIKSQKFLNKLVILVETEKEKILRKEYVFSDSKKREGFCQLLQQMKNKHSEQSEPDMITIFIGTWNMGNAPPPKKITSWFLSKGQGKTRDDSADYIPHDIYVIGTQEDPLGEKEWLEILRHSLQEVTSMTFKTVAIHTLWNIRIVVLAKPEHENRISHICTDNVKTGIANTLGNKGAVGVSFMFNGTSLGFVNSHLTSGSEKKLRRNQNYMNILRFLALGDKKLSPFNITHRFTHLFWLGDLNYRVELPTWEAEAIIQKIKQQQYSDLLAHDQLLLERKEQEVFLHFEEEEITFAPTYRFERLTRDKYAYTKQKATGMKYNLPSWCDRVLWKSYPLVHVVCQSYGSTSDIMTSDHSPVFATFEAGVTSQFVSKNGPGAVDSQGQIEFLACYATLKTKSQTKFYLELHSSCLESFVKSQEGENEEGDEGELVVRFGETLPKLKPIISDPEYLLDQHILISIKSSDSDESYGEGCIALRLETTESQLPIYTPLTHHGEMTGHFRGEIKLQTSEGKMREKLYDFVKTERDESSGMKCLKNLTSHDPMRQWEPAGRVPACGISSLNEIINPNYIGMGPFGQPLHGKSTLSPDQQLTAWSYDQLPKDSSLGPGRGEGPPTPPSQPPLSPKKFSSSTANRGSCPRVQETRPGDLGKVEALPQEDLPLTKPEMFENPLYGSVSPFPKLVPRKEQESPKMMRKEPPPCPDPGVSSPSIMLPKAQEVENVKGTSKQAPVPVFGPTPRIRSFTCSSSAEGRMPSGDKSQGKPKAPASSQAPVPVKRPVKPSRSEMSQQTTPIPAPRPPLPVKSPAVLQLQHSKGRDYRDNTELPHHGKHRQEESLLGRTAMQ
Procedure: as §1, §2, §3

T1 sequence (P81718 whole entry): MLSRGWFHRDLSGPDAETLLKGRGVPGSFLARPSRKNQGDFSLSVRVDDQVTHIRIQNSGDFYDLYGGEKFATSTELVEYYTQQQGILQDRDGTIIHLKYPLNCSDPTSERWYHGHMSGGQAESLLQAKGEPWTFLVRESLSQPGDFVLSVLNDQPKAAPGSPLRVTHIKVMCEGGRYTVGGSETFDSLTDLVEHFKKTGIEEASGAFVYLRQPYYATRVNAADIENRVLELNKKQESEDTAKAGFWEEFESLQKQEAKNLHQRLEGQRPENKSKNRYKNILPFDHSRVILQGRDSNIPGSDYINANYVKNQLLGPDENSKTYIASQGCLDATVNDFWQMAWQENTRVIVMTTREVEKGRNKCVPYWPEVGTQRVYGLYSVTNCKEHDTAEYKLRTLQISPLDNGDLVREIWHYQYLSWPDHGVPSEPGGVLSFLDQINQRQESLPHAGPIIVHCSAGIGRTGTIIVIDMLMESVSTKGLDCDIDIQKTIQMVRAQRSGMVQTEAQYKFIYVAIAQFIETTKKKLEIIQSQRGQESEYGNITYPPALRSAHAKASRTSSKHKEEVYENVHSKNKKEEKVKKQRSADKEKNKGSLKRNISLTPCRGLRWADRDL

Substance | binding of SHP-1 from cell lysates (SHP-1) | binding of SHP-2 from cell lysates (SHP-2) | binding of SHIP from cell lysates (SHIP) | binding of SHIP from cell lysates (SHIP; listed as FcγRIIB phosphorylated ITIM peptides)
DEQDPQEATY303AQLN (DEQDPQEATYAQLN) [p58.2.1-V301A, point mutant of KIR N-terminal ITIM peptide] | abolishes the binding | abolishes the binding | – | –
KTEAENTITY262SLLK [nonphosphorylated peptides corresponding to FcγRIIB] | No association | No association | No association | –
KTEAENTITY262SLLK [FcγRIIB ITIM] (Biotin-KTEAENTITYSLLK) [murine FcγRIIB1/B2 ITIM peptide] | recruit | recruit | recruit | associate
KTEAENTATY262SLLK (KTEAENTATYSLLK) [FcγRIIB 1-I260A, point mutant of FcγRIIB ITIM peptide] | abolishes the binding | abolishes the binding | not affected | –
